The target of series [1] is Tyr11 (position 11, …--). Nature of the series: potentiometry. The settings on record: metal-free peptide.
The target in series [2] is Nterm1 (position 1, -----MDHSHH). Nature of the series: potentiometry.

Among the data in publication PMC8953729 are pKa values, retold here.

The term pKa denotes the negative logarithm of the acid dissociation constant.

In the case of MDHSHHMGMSYMDS, the pKa in series [1] (298.0 ± 0.2 K, 0.10 M (KNO3), none (titration with 0.1 M KOH under argon)) is given as 9.64; in series [1] (cited from earlier work), 9.84; in series [2] (298 K, 0.1 mol dm^-3 (KNO3), mononuclear Ag+ complex ([AgLH2] to [AgLH]), Ag+/peptide ratios 1:1, 1:2 and 2:1), 7.33; in series [2] (298.0 ± 0.2 K, 0.10 M (KNO3), none (titration with 0.1 M KOH under argon), metal-free peptide), 7.63; in series [2] (metal-free peptide, cited from earlier work) it was 7.46.
